These results are taken from PMC5451212, “RISC-interacting clearing 3’- 5’ exoribonucleases (RICEs) degrade uridylated cleavage fragments to maintain functional RISC in Arabidopsis thaliana” (eLife, 2017).

The data set concerns the molecule itself. The data set can be described thus: SEC; purified proteins after SUMO protease cleavage on Superdex75 (1.6 x 60), 20 mM Tris-HCl pH 7.5, 150 mM NaCl.

Substitutions are numbered along the chain they refer to. Names and notes keep the numbering of the source.

B1: RICE1 D52A, purified recombinant (enzyme, A. thaliana, UniProt Q9SF21 1-200, looked up)
chain: MASFDGQGFMMVDNSWVQTKAIDVESTTDISPYLSKILEDSVWNGNRSIVFAVYWDVKSVSTKSEWRLCSVKFSTKNFCLFLRLPNPFCDNLKDLYRFFASKFVTFVGVQIQEDLALLKENHGIVIRSSLEIGKLAAKARGTPIVEFLGTRELAHKILWYDMSRLDSIQSKWDEASSNDRLEAAAIEGWLIFNVYDQLQQ
notes: RICE1 (At3g11770), A. thaliana; point mutant made on pET28a-SUMO-RICE1; source: E. coli BL21 (DE3), purified (Ni-NTA, SUMO protease cleavage, SEC); not shown: His6, N-terminal, cleaved; SUMO, N-terminal, cleaved
On to B1, for which the binding result is reported as “binds”.

B2: RICE1 E187A, purified recombinant (enzyme, A. thaliana, UniProt Q9SF21 1-200, looked up)
chain: B1 chain with A52D, E187A
notes: as for B1
For B2, the binding result is “binds”.

B3: RICE1 Y54S, purified recombinant (enzyme, A. thaliana, UniProt Q9SF21 1-200, looked up)
chain: B1 chain with A52D, Y54S
notes: as for B1
Take B3: the binding result was “binds”.

B4: RICE2, purified recombinant (SUMO tag cleaved) (enzyme, A. thaliana, UniProt Q9FNG3 1-206, looked up)
chain: MASFDGPKFKMTDGSYVQTKTIDVGSSTDISPYLSLIREDSILNGNRAVIFDVYWDVGFPETETKTKTSGWSLSSVKLSTRNLCLFLRLPKPFHDNLKDLYRFFASKFVTFVGVQIEEDLDLLRENHGLVIRNAINVGKLAAEARGTLVLEFLGTRELAHRVLWSDLGQLDSIEAKWEKAGPEEQLEAAAIEGWLIVNVWDQLSDE
notes: RICE2 (At5g06450; AtDECP), A. thaliana; full-length cDNA in pET28a-SUMO (BamHI/SacI); also called AtDECP; source: E. coli BL21 (DE3), purified (Ni-NTA, SUMO protease cleavage, SEC); not shown: His6, N-terminal, cleaved; SUMO, N-terminal, cleaved
Turning to B4, the “stoichiometry N” value was roughly 6.

By stoichiometry N is commonly meant the number of molecules, sites or subunits per partner or assembly.
